Assay results as given in publication PMC3349575.

Biological target: XD-CGFP fusion protein (X domain of the measles virus phosphoprotein fused to the C-terminal half of eGFP) (UniProt P03422)
Experiment: split-GFP reassembly assay (fluorescence to OD600 ratio of E. coli co-expressing NGFP-N_TAIL and XD-CGFP)
Details: parent: est. 1.1; read off a plot

Chain of UniProt P03422 (P03422 459-507): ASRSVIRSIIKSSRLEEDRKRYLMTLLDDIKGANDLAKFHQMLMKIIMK

With “NGFP-wtN_TAIL fusion protein (C-terminal domain of the measles virus nucleoprotein fused to the N-terminal half of eGFP) mutant 1 (substitutions not printed)” the response (x10^4 fluorescence intensity / OD600) was 1.1.

“NGFP-wtN_TAIL fusion protein (C-terminal domain of the measles virus nucleoprotein fused to the N-terminal half of eGFP) mutant 2 (substitutions not printed)” showed a response (x10^4 fluorescence intensity / OD600) of 0.9.

Work on “NGFP-wtN_TAIL fusion protein (C-terminal domain of the measles virus nucleoprotein fused to the N-terminal half of eGFP) mutant 3 (substitutions not printed)” yielded a response (x10^4 fluorescence intensity / OD600) of 0.54.
